Results on one molecule are retold here after patent publication US5445935.

The data set has as its target tryptophan repressor (TrpR) (UniProt P0A881 P0A881:2-108). Description: FP; dimer-DNA Kd from linked monomer-dimer/DNA binding model (preferred fit; dimer-monomer Kd 3.5 nM); 0.2 nM DNA, 10 mM K phosphate, 0.1 mM EDTA, 10% glycerol, pH.

B1: fluorescein-labeled 25-mer trp operator duplex (dsDNA)
DNA 1: CTTGCACTAGTTAACTAGTCAGCAA
DNA 2: TTGCTGACTAGTTAACTAGTGCAAG
One may read the Kd as the concentration at which binding is half-saturated. Lower therefore signals tighter binding. As to B1, the Kd came out at 0.23 nM.
